According to patent publication US20220308061A1:

Biological target: NY-ESO-1 peptide presented in the stimulated PBMC culture
Experiment: cell-based or functional assay

Which results are given for NY-ESO TCR (clone 1G4)?
percent of CD8+ T cells CD137+/NGFR+ after antigen stimulation (% of CD8+ T cells): 0.69; percent of CD8+ T cells IFNγ+/NGFR+ after antigen stimulation (% of CD8+ T cells): 0.47; percent of CD8+ T cells TNFα+/NGFR+ after antigen stimulation (% of CD8+ T cells): 0.41
